Results published in publication PMC9524272 (Frontiers in Immunology, 2022).

Columns and labels:
[1] = biological target: SARS-CoV-2 spike receptor binding domain, Wuhan-Hu-1 (WT) (SARS-CoV-2 Wuhan-Hu-1, UniProt P0DTC2)
[2] = biological target: SARS-CoV-2 spike receptor binding domain, Delta B.1.617.2 (SARS-CoV-2 Delta B.1.617.2 (on …, strain))
[3] = biological target: SARS-CoV-2 spike receptor binding domain, Beta B.1.351 (SARS-CoV-2 Beta B.1.351 (on Wuhan-Hu-1 …, strain))
[4] = biological target: SARS-CoV-2 spike receptor binding domain, Omicron BA.1 (IPBCAMS-OM01/2021) (SARS-CoV-2 Omicron BA.1, isolate …, strain)
[5] = biological target: SARS-CoV-2 Spike RBD Omicron BA.4&BA.5 (SARS-CoV-2 Omicron BA.4/BA.5, strain)

B1: H7 (VHH)
VHH: QVQLVESGGGLVQPGGSLRLSCAASGYSYRSTYYLGWFRQAPGQGLEAVAAIYGAGSTYYADSVKGRFTISRDNSKNTLYLQMNSLRAEDTAVYYCAAGDESTRGYGYSWDYWGQGTLVTVSS
[1]
  Kd: 4.4 nM
[2]
  Kd: 7.2 nM
[3]
  Kd: 3.7 nM
[4]
  binding result: binds
[5]
  binding result: binds
